This note sets out measurements from patent US10556007B2, “Antibody which binds Lrg1 and methods of use” (UCL Business PLC, priority 2015, dated 2020).

Entries after “also recorded” stand apart in the source; their conditions may differ.

One test has as its system B16/F0 tumours. Nature of the test: B16/F0 subcutaneous tumour vasculature. Type of test: in vivo, mouse. As to the method:
The adherent cell line B16/F0 was harvested and single-cell suspensions of 1×10^6 cells in 100 μl PBS was injected subcutaneously into the lower back of C57B1/6 mice. Tumours were measured every other day with a caliper and volume was calculated using the formula: V=(4/3)×π×(L/2)×(W/2)×(H/2). The mice were sacrificed at defined time intervals or after the tumors reached 2000 mm^3. Treatment with 15C4 or IgG was started after three days at 50 mg/kg by intraperitoneal injections, and repeated every 3 days. Vessels were identified by CD31 immunohistochemistry on tumour sections (FIG. 11).

In a further test the target is T1, human Lrg1 (Homo sapiens, UniProt P02750).
T1 sequence (P02750 36-347): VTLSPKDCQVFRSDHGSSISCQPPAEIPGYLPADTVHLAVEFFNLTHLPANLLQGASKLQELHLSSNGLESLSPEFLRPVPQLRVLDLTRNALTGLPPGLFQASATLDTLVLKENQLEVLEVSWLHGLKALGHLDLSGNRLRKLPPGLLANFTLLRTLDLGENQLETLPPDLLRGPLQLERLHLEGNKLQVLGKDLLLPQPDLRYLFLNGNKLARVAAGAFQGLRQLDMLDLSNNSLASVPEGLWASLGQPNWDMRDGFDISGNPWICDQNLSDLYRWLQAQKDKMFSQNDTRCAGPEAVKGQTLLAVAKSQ
Nature of the test: Biacore affinity and binding kinetics, human Lrg1. As to the method: Biacore was used to measure the binding affinity, association and dissociation constants of the antibodies to human Lrg1. Human Lrg1 was immobilized on the Biacore chip, and mAbs passed across at concentrations ranging from 20-100 nM. A cut off binding affinity value of 2 nM was used to isolate possible candidate antibodies for further investigation.
The four lead mAbs were examined using Biacore, in experiments in which human Lrg1 was immobilized on the chip, and mAbs passed across at concentrations ranging from 20-100 nM. The Table below summarises the kinetic data.
Background: Surface plasmon resonance follows binding to a sensor surface in real time, without labels.

The test system of test [1] is Human umbilical vein endothelial cells (HUVEC). Nature of the test: Matrigel tube formation assay. In kind it is cell-based. The settings on record: 100 nM antibody, overnight. The method, then:
The antibodies were tested for their ability to inhibit tube formation in a Matrigel assay. Human umbilical vein endothelial cells (HUVEC) were plated on Matrigel and cultured overnight in the presence of 100 nM mAbs. The blocking rabbit polyclonal Lrg1 antibody was also evaluated. […] Blocking with 4H2 never exceeded ˜50%.

The test system of test [2] is lesions in RPE/Choroid of the JR5558 mouse. Nature of the test: JR5558 mouse lesion formation. In kind it is in vivo. The settings on record: 50 mg/kg IP every 3 days from D14, eyes harvested D25, vs IgG. As to the method: 15C4 or IgG at 50 mg/kg was administered IP every 3 days from D14. Eyes were harvested on D25 and RPE/Choroid stained with Collagen IV. The number of lesions was counted and data quantified for the two groups.

Another test relates to B16-F0 tumours. Nature of the test: B16-F0 tumour, 15C4 with cisplatin. In kind it is in vivo, mouse. The conditions noted are these: vs IgG and cisplatin. The method, then: The adherent cell line B16-F0 was harvested and a single-cell suspension of 1×10^6 cells in 100 μl PBS was injected subcutaneously into the lower back of C57B1/6 male mice. Treatment with 15C4 or IgG was started after three days at 50 mg/kg by intraperitoneal injections, and repeated every 3 days. Suboptimal doses of Cisplatin (2.5 mg/kg) were administered to mice bearing tumours with an average size of 0.5 cm^3 every other day by intraperitoneal injections. Tumours were measured with callipers every other day and volume was calculated using the formula: V=(4/3)×π×(L/2)×(W/2)×(H/2).
Cisplatin and IgG or 15C4 treated tumours were immersion fixed in 4% PFA overnight at 4° C. and then immersed in 30% sucrose overnight at 4° C. Tumour tissue was then OCT embedded and frozen for sectioning (40 μm). TUNEL assay was performed using an ApopTag in situ apoptosis detection kit according to manufacturers protocol (Merk Millipore, USA).
The DNA double strand break marker γ-H2AX was stained for in tumour sections, indicating cisplatin-induced DNA damage.

In test [3] the target is T2, Lrg1 (overlapping 15-mer peptides and full length) (Homo sapiens, UniProt P02750).
T2 sequence (P02750 36-347): T1 sequence (P02750 36-347)
Nature of the test: Epitope mapping on ProArray Ultra peptide microarray. In kind it is binding. The method, then:
The determination of peptide-antibody binding was performed by incubation of serum or antibody samples with a ProArray Ultra® peptide microarray, followed by incubation with a fluorescent-labelled secondary antibody.
All peptides were synthesized separately, and then bound to the ProArray Ultra® slide surface using Prolmmune's proprietary technology. This optimised process ensured that peptides were presented on the array in such a manner as to closely mimic the properties of the corresponding protein region, circumventing the inherent physiochemical variation of the free peptides themselves and making a compatible, combined peptide and protein array platform. The test analytes (peptides or proteins) were dispensed onto the ProArray Ultra® slide in discrete spots and appropriate gal-files enabled exact alignment of the resulting array features back to the analyte deposited.
ProArray Ultra® slides were blocked using a validated blocking buffer to reduce non-specific binding of the sera. […] After several washing steps, the ProArray Ultra® arrays were dried and scanned using a high-resolution fluorescence microarray scanning system. […]
ProArray Ultra® slides containing the immobilised peptides were incubated with the antibody samples. […] The murine IgG positive controls were detected in all samples. […]

In test [4] the test system is Lrg1 (rhLrg1 and liver extracts from mouse, rat, rabbit, monkey, dog and cat). Nature of the test: Species cross-reactivity ELISA on liver extracts. Type of test: binding. The conditions noted are these: mAb at 100 nM. The method, then:
Species cross-reactivity was carried out by ELISA in a protocol in which multiwall plates were coated with rhLrg1, and liver extracts from mouse, rat, rabbit, monkey, dog and cat.

Test [5] deals with HUVEC co-cultured with human fibroblasts. Nature of the test: HUVEC co-culture model of angiogenesis. In kind it is cell-based. The conditions noted are these: 14 days co-culture, 10-200 nM. As to the method:
Antibodies 4H2, 15C4 and 3A11 were tested to see if they elicited an inhibition of vessel growth in the co-culture model of angiogenesis. HUVEC were co-cultured with human fibroblasts for 14 days, and then fixed and immunostained with an antibody against PECAM. Avastin was included as a positive control, and all four mAbs were tested at 10, 25, 50, 100 and 200 nM. There were two important observations from this experiment.

B1: 15C4: mouse monoclonal antibody against human Lrg1, VH SEQ ID NO: 1, VL SEQ ID NO: 2 (antibody, V domains shown)
VH: QVQLQQSGDEVVRPGSSVKISCKASGYTFSGYWMNWVKQRPGQGLQWIGQIYPGDGDTNYNGKFKGKATLTADKSSSTAYMQLSTLTSEDSAIYFCARSITTVVLDYWGQGTTLTVSS
VL: DIVLTQSPVSLAVSLGQRATISCRASQSVSTSGYSFMHWYQQKPGQPPKFLIKYASNLESGVPARFSGSGSGTDFTLNIHPVEEEDTATYYCQHSWEMPLTFGAGTKLELK
modifications: 15C4 Variable Heavy Chain; 15C4 Variable light chain
Take B1: in the test on B16/F0 tumours (C57BL6 mice, CD31 with αSMA or NG2, vs IgG), the “endothelial and pericyte co-localisation” value was “increases endothelial and pericyte co-localisation”. Further, the “small vessels / distribution of vessel sizes (CD31)” value with B16/F0 tumours (C57Bl/6 mice, 50 mg/kg IP every 3 days, vs IgG controls) is recorded as “Fewer small vessels”. The “replication of Lrg1 knockout tumour vessel phenotype” value with B16/F0 tumours (wild type mice, 50 mg per kg) is “drives normalisation of tumour vessels; also recorded: These results were mimicked; also recorded: blood vessels are more functional and mature”. The “affinity for human Lrg1 (in words)” value in the test with human Lrg1 (Biacore) was “affinity in the picomolar range; also recorded: bound with especially high affinity; also recorded: very high affinity; also recorded: much higher affinity for human Lrg1”. The same molecule returned a Ka in the test with human Lrg1 (human Lrg1 immobilized on chip, mAbs at 20-100 nM) of 1.10E+05. Moreover, in the test with human Lrg1 (rate constant column beside Ka, human Lrg1 immobilized on chip, mAbs at 20-100 nM), the “dissociation rate constant (kd)” value is 1.40E−07. Moreover, the Kd in the test with human Lrg1 (text summary of Biacore data, read-out: binding affinities for human Lrg1) came out at 1.2 pM. Further, in test [1], the “blocking of tube formation” value came to 60%. In test [2], the number of lesions result is given as “reduces lesion formation; also recorded: significantly fewer lesions”. Also, the tumor growth entry with B16-F0 tumours (15C4 50 mg/kg IP every 3 days in combination with cisplatin 2.5 mg/kg) is “significant reduction in tumor growth”. Further, in the test on B16-F0 tumours (in combination with cisplatin), the “apoptosis (TUNEL)” value is on record as “Significantly more apoptosis” and the “nuclei with γ-H2AX foci” value is reported as “Significantly more nuclei with γ-H2AX foci”. For the same molecule, in test [3], the “binding to full length Lrg1 on array” value was “binder at all dilutions”. In addition, the “cross-reactivity with rodent Lrg1” value in test [4] is given as “None of antibodies 4H2, 3A11 or 15C4 exhibited strong cross-reactivity with rodent Lrg1”. In addition, the “inhibition of vessel growth” value in test [5] is recorded as “equally effective”.
